# Laboratory results published in patent US20250179210A1 (Merck KGaA, published 2025).
# T1: recombinant human (rh) CEACAM5 ECD (Syngene) (human, UniProt P06731 35-685)
# T1 sequence: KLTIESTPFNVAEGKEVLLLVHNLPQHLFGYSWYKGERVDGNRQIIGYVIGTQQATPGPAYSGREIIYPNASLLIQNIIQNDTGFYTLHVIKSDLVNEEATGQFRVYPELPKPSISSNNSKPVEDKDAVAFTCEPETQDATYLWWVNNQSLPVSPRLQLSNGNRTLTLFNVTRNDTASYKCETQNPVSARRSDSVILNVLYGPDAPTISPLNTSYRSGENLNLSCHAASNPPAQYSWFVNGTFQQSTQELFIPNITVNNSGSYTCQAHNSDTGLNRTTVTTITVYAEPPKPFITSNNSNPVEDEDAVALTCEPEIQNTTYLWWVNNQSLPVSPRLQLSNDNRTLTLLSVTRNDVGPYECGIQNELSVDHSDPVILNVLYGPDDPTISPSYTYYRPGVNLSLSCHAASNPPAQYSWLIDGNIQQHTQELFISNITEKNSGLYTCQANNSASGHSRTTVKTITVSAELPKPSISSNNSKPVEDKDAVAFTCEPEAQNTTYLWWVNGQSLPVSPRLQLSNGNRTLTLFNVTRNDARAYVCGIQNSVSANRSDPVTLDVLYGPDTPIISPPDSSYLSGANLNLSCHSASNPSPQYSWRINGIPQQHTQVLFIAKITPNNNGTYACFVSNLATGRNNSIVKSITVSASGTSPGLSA
# T2: recombinant human CEACAM5 A2-B2 domain (Syngene) (human, UniProt P06731 321-498)
# T2 construct: also called rhA2-B2 domain
# T2 sequence: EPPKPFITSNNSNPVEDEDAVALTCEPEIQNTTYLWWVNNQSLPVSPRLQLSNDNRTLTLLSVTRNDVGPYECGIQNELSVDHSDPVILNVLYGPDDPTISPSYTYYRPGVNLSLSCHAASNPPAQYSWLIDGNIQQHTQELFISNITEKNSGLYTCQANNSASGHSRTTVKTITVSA
# T3: human CEACAM5 expressed on human cancer cell lines (MKN-45, NCI-H441, SK-CO-1, SNU-16, LS174T) (human, UniProt P06731 35-685)
# T3 construct: Endogenous protein on cells; also called MKN45 cell line expressing human CEACAM5; CEACAM5-positive cell lines
# T3 sequence: T1 sequence
# T4: recombinant human CEACAM5 N-A1-B1 domain (Syngene) (human, UniProt P06731 35-320)
# T4 construct: also called rhN-A1-B1
# T4 sequence: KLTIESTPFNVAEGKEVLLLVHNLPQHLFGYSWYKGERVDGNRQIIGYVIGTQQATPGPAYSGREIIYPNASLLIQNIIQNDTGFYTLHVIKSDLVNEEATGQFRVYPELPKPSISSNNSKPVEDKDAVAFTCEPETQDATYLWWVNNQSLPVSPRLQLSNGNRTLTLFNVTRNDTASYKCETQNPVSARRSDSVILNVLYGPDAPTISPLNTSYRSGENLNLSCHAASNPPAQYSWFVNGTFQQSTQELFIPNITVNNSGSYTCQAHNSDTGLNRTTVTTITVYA
# T5: recombinant human CEACAM5 A3-B3 domain (Syngene) (human, UniProt P06731 499-685)
# T5 construct: also called rhA3-B3
# T5 sequence: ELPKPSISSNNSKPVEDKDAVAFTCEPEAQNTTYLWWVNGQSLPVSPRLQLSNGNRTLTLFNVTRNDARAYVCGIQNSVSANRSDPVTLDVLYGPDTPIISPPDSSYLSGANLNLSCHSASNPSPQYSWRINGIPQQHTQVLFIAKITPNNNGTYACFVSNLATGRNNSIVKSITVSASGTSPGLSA
# T6: human_CEACAM5_ECD-his-biotin (R&D Systems) (human, UniProt P06731 35-685, biotinylated using routine methods (sites not given))
# T6 construct: Bought protein; not shown: His tag and any linker
# T6 sequence: T1 sequence
# T7: huCEACAM5-His6 (R&D Systems #4128-CM) (human, UniProt P06731 35-685)
# T7 construct: Bought protein; also called human CEACAM5; not shown: His6 tag
# T7 sequence: T1 sequence
# T8: huCEACAM3-His6 (C449 Novoprotein) (human, UniProt P40198 35-155, limits assumed)
# T8 construct: also called human CEACAM3
# T8 sequence (looked up): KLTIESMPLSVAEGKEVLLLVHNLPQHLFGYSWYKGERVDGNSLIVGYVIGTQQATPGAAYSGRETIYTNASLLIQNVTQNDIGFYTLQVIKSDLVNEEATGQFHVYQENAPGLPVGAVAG
# T9: huCEACAM1-His6 (2244-CM R&D Systems) (human, UniProt P13688 35-428)
# T9 construct: also called human CEACAM1
# T9 sequence (looked up): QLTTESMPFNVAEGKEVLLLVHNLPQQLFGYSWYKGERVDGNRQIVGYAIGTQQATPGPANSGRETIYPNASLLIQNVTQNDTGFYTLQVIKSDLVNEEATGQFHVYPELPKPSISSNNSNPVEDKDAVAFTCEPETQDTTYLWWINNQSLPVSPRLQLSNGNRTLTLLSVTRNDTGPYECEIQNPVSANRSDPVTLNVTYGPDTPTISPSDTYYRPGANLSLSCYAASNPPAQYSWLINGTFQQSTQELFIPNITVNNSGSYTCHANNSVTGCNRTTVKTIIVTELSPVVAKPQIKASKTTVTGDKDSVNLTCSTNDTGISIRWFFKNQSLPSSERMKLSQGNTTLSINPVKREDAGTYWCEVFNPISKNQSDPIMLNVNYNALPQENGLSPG
# T10: huCEACAM6-His6 (3934-CM R&D Systems and recombinant protein obtained from Syngene) (human, UniProt P40199 35-320)
# T10 construct: Two sources of the protein are named; the result is told once; also called human CEACAM6
# T10 sequence (looked up): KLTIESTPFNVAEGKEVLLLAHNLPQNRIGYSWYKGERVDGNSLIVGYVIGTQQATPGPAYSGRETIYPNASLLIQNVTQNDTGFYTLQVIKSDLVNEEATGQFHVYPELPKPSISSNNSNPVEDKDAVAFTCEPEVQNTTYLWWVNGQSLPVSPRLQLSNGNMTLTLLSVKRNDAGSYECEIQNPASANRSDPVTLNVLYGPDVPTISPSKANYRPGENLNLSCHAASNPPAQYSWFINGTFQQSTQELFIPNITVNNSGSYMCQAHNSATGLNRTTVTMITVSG
# T11: huCEACAM8-His6 (C583 Novoprotein) (human, UniProt P31997 35-320, limits assumed)
# T11 construct: also called human CEACAM8
# T11 sequence (looked up): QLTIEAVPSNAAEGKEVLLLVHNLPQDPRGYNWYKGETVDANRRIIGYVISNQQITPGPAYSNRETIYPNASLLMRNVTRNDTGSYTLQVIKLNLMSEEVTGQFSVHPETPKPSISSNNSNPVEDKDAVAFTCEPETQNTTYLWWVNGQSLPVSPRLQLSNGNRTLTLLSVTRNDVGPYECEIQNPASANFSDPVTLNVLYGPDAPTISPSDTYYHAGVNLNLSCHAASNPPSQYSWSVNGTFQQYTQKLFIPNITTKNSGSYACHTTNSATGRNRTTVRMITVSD
# T12: huCEACAM7-His6 (C926 Novoprotein) (human, UniProt Q14002 36-242, limits assumed)
# T12 construct: also called human CEACAM7
# T12 sequence (looked up): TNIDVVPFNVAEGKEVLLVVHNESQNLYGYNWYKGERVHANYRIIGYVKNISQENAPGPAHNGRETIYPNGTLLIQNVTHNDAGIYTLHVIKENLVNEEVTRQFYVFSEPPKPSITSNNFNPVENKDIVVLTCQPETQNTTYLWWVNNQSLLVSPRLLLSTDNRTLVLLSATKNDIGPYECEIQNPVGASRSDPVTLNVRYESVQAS
# B1: mAb1 (final sequence-optimized anti-CEACAM5 antibody so8G4) (antibody, human IgG1, kappa)
# heavy: EVQLQESGPGLVKPSQTLSLTCTVSDGSVSRGGYYLTWIRQHPGKGLEWIGYIYYSGSTYFNPSLRSRVTMSVDTSKNQFSLKLSSVTAADTAVYYCARGIAVAPFDYWGQGTLVTVSSASTKGPSVFPLAPSSKSTSGGTAALGCLVKDYFPEPVTVSWNSGALTSGVHTFPAVLQSSGLYSLSSVVTVPSSSLGTQTYICNVNHKPSNTKVDKRVEPKSCDKTHTCPPCPAPPVAGPSVFLFPPKPKDTLMISRTPEVTCVVVDVSHEDPEVKFNWYVDGVEVHNAKTKPREEQYNSTYRVVSVLTVLHQDWLNGKEYKCKVSNKALPSSIEKTISKAKGQPREPQVYTLPPSREEMTKNQVSLTCLVKGFYPSDIAVEWESNGQPENNYKTTPPVLDSDGSFFLYSKLTVDKSRWQQGNVFSCSVMHEALHNHYTQKSLSLSPG
# light: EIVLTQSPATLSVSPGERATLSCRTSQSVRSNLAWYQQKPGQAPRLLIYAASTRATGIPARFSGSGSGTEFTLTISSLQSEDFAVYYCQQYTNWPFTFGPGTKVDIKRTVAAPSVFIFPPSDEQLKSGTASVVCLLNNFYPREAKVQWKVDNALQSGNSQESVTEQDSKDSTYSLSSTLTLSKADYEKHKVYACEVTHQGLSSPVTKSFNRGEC
# notes: Labelled with pHrodo in the internalization assay
# B2: Fab of mAb1 (Fab, V domains shown)
# VH: EVQLQESGPGLVKPSQTLSLTCTVSDGSVSRGGYYLTWIRQHPGKGLEWIGYIYYSGSTYFNPSLRSRVTMSVDTSKNQFSLKLSSVTAADTAVYYCARGIAVAPFDYWGQGTLVTVSS
# VL: EIVLTQSPATLSVSPGERATLSCRTSQSVRSNLAWYQQKPGQAPRLLIYAASTRATGIPARFSGSGSGTEFTLTISSLQSEDFAVYYCQQYTNWPFTFGPGTKVDIK
# notes: Fab format of mAb1; also called Fab generated from mAb1
# Tests used:
# [1] = target: T1, recombinant human (rh) CEACAM5 ECD …; experiment: ELISA, 1 µg/ml coated antigen, antibody titrated; rhCEACAM5 ECD coated
# [2] = target: T2, recombinant human CEACAM5 A2-B2 domain …; experiment: ELISA, 1 µg/ml coated antigen, antibody titrated; rhA2-B2 domain coated
# [3] = target: T3, human CEACAM5 expressed on human cancer …; experiment: cellular binding on MKN45 cells (FIG. 2)
# [4] = target: T3, human CEACAM5 expressed on human cancer …; experiment: flow cytometry (MFI), titration on MKN-45 cells
# Description: The antibody's ability to bind its target protein on cells was determined by titrating the antibody on cells that express the target (e.g. human CEACAM5) and measuring the fluorescence MFI of the cells. Model cells for antibody binding comparison were the MKN45 cell line expressing human CEACAM5 as well as a CHO cell line expressing mfCEACAM5. Titration was done with 10-point ×4 dilution, curve starting concentration 2000 nM in assay buffer (PBS×1 containing 1% BSA).
# [5] = target: T13, BSA (bovine serum albumin) (bovine, UniProt P02769 25-607); experiment: ELISA on coated antigen, antibody titrated
# T13 construct: Negative control; also called unrelated protein
# [6] = target: T2, recombinant human CEACAM5 A2-B2 domain …; experiment: ELISA on coated antigen, antibody titrated
# [7] = target: T4, recombinant human CEACAM5 N-A1-B1 …; experiment: ELISA on coated antigen, antibody titrated
# [8] = target: T1, recombinant human (rh) CEACAM5 ECD …; experiment: ELISA on coated antigen, antibody titrated
# [9] = target: T5, recombinant human CEACAM5 A3-B3 domain …; experiment: ELISA on coated antigen, antibody titrated
# [10] = target: T6, human_CEACAM5_ECD-his-biotin (R&D …); experiment: BLI (Octet Red), biotinylated antigen captured on streptavidin biosensor, Fab as analyte 6.25-200 nM
# Description: To determine the binding affinity of soluble antibody analyte to captured target protein CEACAM5 (human or cynomolgus monkey Macaca fascicularis). […] Biosensor coated with StreptAvidin.
# [11] = target: T13, BSA (bovine serum albumin); experiment: ELISA
# [12] = target: T7, huCEACAM5-His6 (R&D Systems #4128-CM); experiment: ELISA, protein coated at 12 nM; Fab, not IgG
# [13] = target: T8, huCEACAM3-His6 (C449 Novoprotein); experiment: ELISA, protein coated at 12 nM
# [14] = target: T9, huCEACAM1-His6 (2244-CM R&D Systems); experiment: ELISA, protein coated at 12 nM
# [15] = target: T10, huCEACAM6-His6 (3934-CM R&D Systems and …); experiment: ELISA, protein coated at 12 nM
# [16] = target: T11, huCEACAM8-His6 (C583 Novoprotein); experiment: ELISA, protein coated at 12 nM
# [17] = target: T14, huPSG1-His6 (CC66 Novoprotein) (human, UniProt P11464 35-419, limits assumed); experiment: ELISA, protein coated at 12 nM
# T14 construct: also called human PSG1
# [18] = target: T12, huCEACAM7-His6 (C926 Novoprotein); experiment: ELISA, protein coated at 12 nM
# T13 sequence (P02769 25-607 limits assumed): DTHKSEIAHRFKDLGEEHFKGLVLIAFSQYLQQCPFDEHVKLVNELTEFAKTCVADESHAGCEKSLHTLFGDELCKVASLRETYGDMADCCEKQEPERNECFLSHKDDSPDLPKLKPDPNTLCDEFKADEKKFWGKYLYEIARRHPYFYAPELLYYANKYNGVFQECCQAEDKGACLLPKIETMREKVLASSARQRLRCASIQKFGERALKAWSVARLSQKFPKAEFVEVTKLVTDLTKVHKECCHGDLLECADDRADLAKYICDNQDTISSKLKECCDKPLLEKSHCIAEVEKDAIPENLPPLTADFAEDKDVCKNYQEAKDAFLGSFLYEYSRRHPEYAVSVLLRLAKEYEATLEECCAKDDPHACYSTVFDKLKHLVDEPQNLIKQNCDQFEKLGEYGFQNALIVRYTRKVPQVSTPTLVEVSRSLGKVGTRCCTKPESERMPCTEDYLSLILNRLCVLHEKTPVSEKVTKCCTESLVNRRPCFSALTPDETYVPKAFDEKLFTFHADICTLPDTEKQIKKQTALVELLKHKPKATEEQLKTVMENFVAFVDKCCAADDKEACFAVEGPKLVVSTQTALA
# T14 sequence (P11464 35-419 limits assumed): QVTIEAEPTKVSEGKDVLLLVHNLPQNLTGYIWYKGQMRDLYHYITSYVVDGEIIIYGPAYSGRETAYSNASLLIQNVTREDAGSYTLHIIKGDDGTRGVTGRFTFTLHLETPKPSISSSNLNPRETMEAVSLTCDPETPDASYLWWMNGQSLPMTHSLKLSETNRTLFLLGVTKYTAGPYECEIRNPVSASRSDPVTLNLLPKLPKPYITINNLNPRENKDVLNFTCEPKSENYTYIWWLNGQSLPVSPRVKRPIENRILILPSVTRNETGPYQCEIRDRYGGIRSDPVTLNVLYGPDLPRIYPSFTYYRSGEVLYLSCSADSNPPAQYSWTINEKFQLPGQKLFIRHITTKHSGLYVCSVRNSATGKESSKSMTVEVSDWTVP
binder,measurement,setting,value
B1,EC50,[1],0.153 nM
same,EC50,[2],0.167 nM
same,EC50,[3],8.3 nM
same,EC50,[4],10.6 nM
same,binding result,[5],no binding (tested: 4000 pM)
same,EC50 (read off the curve),[6],~0.2 nM
same,binding result,[7],no binding (tested: 4000 pM)
same,EC50 (read off the curve),[8],~0.2 nM
same,binding result,[9],no binding (tested: 4000 pM)
B2,Kd,[10],6.3 nM
same,binding result,[11],no binding (tested: all concentrations tested)
same,EC50,[12],3.04 nM
same,binding result,[13],no binding (tested: 1000 nM)
same,binding result,[14],no binding (tested: 1000 nM)
same,binding result,[15],no binding (tested: 1000 nM)
same,binding result,[16],no binding (tested: 1000 nM)
same,binding result,[17],no binding (tested: 1000 nM)
same,binding result,[18],no binding (tested: 1000 nM)
